Molecular target: T1, SA2–Scc1 cohesin subcomplex (SA2 80–1060, Scc1 281–420), purified recombinant (human, UniProt Q8N3U4;O60216)
T1 sequence 1: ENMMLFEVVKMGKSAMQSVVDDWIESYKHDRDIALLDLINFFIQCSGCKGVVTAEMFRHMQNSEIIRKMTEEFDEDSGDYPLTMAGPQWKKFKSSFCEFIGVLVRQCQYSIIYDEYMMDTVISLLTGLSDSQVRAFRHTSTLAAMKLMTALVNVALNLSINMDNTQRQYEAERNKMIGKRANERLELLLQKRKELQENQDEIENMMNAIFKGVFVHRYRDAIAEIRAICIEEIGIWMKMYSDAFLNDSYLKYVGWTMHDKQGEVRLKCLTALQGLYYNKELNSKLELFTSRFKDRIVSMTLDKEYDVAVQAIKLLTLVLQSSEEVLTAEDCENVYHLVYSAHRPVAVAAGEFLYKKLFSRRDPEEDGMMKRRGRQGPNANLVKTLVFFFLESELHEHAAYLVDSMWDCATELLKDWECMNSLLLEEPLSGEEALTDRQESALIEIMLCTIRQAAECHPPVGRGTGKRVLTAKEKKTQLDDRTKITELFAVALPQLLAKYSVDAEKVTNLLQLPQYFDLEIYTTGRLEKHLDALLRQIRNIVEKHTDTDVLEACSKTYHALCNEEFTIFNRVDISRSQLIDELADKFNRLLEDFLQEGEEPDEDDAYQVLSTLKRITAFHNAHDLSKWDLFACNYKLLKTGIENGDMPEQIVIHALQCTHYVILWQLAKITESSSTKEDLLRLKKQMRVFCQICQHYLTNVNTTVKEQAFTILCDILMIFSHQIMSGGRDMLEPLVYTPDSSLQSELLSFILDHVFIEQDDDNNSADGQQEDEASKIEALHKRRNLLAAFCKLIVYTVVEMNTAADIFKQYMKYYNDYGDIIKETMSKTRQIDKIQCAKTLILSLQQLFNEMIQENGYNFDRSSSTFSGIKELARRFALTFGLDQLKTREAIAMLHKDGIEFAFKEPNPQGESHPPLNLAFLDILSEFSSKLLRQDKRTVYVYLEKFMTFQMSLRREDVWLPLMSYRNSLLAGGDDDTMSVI
T1 sequence 2: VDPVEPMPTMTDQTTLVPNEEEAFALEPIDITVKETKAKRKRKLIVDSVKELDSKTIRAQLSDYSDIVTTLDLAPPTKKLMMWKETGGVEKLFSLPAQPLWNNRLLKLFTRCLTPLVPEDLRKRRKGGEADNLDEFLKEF
Experiment: ITC

B1: unphosphorylated Sgo1 peptide (residues 313–353) (peptide)
peptide: KSENKKTVPQKKMHKSVSSNDAYNFNLEEGVHLTPFRQKVSC
Kd: 618 nM
stoichiometry N: 1
